Columns and labels:
[1] = molecular target: full-length human BCMA (TNFRSF17, CD269) on the cell surface (human) (UniProt Q02223); experiment: cell-based or functional assay
[2] = molecular target: BCMA (target of the LMB70 affinity measurement; not named, form not stated) (UniProt Q02223); experiment: affinity measurement after the first labeling; method and target not stated
[3] = molecular target: T1, BCMA-rFc fusion protein (extracellular domain of human BCMA, residues 1-54, fused to rabbit IgG Fc) (human; rabbit, UniProt Q02223 1-54); experiment: bio-layer interferometry (BLITZ), BCMA-rFc immobilized by amine coupling, mAb in solution
T1 construct: range 1-54; also called recombinant BCMA-rFc; not shown: rabbit IgG heavy chain hinge region and Fc region (CH2 and CH3 domains), from vector pFUSE-rFc1 (InvivoGen); limits not
T1 sequence (looked up): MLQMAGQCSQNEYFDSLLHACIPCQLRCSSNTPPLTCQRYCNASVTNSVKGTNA

[4] = molecular target: T2, full-length human BCMA (TNFRSF17, CD269) on the cell surface (human, UniProt Q02223 1-184); experiment: cell-based or functional assay
T2 sequence (looked up): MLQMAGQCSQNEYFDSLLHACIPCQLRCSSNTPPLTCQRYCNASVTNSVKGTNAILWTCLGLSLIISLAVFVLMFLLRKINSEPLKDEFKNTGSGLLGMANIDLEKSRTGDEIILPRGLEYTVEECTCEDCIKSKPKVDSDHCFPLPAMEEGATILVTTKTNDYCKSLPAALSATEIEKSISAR

Row | Binder | IC50 (ng/ml), WST assay, H929 cells [1] [ng/mL] | IC50 (ng/ml), WST assay, JJN-3 cells [1] [ng/mL] | IC50 (ng/ml), WST assay, KMS-18 cells [1] [ng/mL] | IC50 (ng/ml), WST assay, LP-1 cells [1] [ng/mL] | IC50 (ng/ml), WST assay, RPMI-8226 cells [1] [ng/mL] | IC50 (ng/ml), WST assay, U266B cells [1] [ng/mL] | IC50, WST assay, H929 cells [1] [ng/mL] | Bmax [2] | Kd [3] [pM] | koff [3] [s⁻¹] | kon [3] [M⁻¹ s⁻¹] | IC50 (ng/ml), WST assay, H929 cells [4] [ng/mL] | IC50 (ng/ml), WST assay, JJN-3 cells [4] [ng/mL] | IC50 (ng/ml), WST assay, RPMI-8226 cells [4] [ng/mL] | IC50 (ng/ml), WST assay, U266B cells [4] [ng/mL]
1 | LMB70: BM306-Fab-LR-GGS immunotoxin (protein, part only; not given: Fab constant domains and toxin part, Fused to a Pseudomonas exotoxin domain III variant (PE-LR-GGS), which the letters do not carry.) VH: EVQLQQSGPELVKPGASVKISCKTSGYTFTEYTINWVKQSHGKSLEWIGDIYPDNYNIRYNQKFKGKATLTVDKSSSTAYMELRSLSSEDSAIYYCANHDFFVFWGQGTLVTVSA VL: DIQMTQATSSLSASLGDRVTINCRTSQDISNHLNWYQQKPDGTVKLLIYYTSRLQSGVPSRFSGSGSGTDYSLTISNLEQEDIGTYFCHQGNTLPPTFGGGTKLEIK | 1.1 | 4 | 65 | 20 | 5.1 | 5 | 1 to 1.5 | 2220 | – | – | – | – | – | – | –
2 | BM306 anti-BCMA monoclonal antibody (antibody, V domains shown, Mouse hybridoma mAb, IgG1 with a kappa light chain) VH: EVQLQQSGPELVKPGASVKISCKTSGYTFTEYTINWVKQSHGKSLEWIGDIYPDNYNIRYNQKFKGKATLTVDKSSSTAYMELRSLSSEDSAIYYCANHDFFVFWGQGTLVTVSA VL: DIQMTQATSSLSASLGDRVTINCRTSQDISNHLNWYQQKPDGTVKLLIYYTSRLQSGVPSRFSGSGSGTDYSLTISNLEQEDIGTYFCHQGNTLPPTFGGGTKLEIKR | – | – | – | – | – | – | – | – | < 1 | < 1e-07 | 415000 | > 1000 | > 1000 | > 1000 | > 1000
3 | BM24 anti-BCMA monoclonal antibody (antibody, V domains shown, Mouse hybridoma mAb, IgG1 with a kappa light chain) VH: EVQLQQSGPELVKPGASVKMSCKASGNTLTNYVIHWMKQMPGQGLDWIGYILPYNDLTKYNEKFTGKATLTSDKSSSSAYMELNSLTSEDSAVYYCTRWDWDGFFDPWGQGTTLTVSS VL: DIVMTQSPLSLPVSLGDQASISCRSTQSLVHSNGNTHLHWYLQRPGQSPKLLIYSVSNRFSEVPDRFSASGSGTDFTLKISRVEAEDLGVYFCSQTSHIPYTFGGGTKLEIKR | – | – | – | – | – | – | – | – | < 1 | < 1e-07 | 297000 | – | – | – | –
